# Experimental data: US20150087581A1 (AURIGENE DISCOVERY TECHNOLOGIES, published 2015)
# Bridges are numbered along the chain shown (N, C = ends). Where no end group is shown, it is not given here. [ ]: non-standard residue; d: D form. The star is where a group is joined. Biotin = O=C1N[C@H]2[C@H](CS[C@H]2CCCCC(=O)*)N1; Palmitoyl = CCCCCCCCCCCCCCCC(=O)*; R5 = C=CCCC[C@@](C)(N)C(=O)O; SNTSESF = not defined here; Octanoyl = CCCCCCCC(=O)*; Hexanoyl = CCCCCC(=O)*; Ahx = NCCCCCC(=O)O
# B1: Compound 49 (peptide)
# peptide: EKIQAKPALQTVRFKFSESTNS
# modifications: not fully specified; Retro inverso (All D-amino acid); branch fsestns on the side chain of lys 15 of the main chain; C-terminal amide
# B2: Compound 60 (peptide)
# peptide: {Biotin-Ahx}-[dS][dN][dT][dS][dE][dS][dF][dK][dF][dR][dV][dT][dQ][dL][dA][dP][dK][dA][dQ][dI][dK][dE]-NH2
# modifications: not fully specified (residue 8); printed as Biotin-Ahx-sntsesfk(sntsesf)frvtqlapkaqike-NH2
# Target: hPDL1 expressed on MDA-MB231 cells (human, UniProt Q9NZQ7 19-290)
# Sequence (Q9NZQ7 19-290): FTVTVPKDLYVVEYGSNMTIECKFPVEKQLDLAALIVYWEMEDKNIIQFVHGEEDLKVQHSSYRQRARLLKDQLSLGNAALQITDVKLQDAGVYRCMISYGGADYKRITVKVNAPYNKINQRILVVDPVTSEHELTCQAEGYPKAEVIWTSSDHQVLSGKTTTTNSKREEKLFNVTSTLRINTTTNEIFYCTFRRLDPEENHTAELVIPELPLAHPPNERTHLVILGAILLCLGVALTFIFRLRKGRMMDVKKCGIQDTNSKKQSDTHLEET
# Experiment: cell-based or functional assay
row,Binder,"Percent rescue (100 nM, compared with 100 nM Comp 8) in mouse splenocyte proliferation CFSE based assay"
1,SNTSESFK(SNTSESF)FRVTELAPKAQIKE-NH2 (lactam 13-17; reading uncertain) [Compound 64],69.1%
2,EKIQAKPAYWNLVKDTQNS-NH2 (not fully specified (residue 14)) [Compound 14],18%
3,B1,73%
4,B2,14.9%
5,SNTSESFKFRVTQLAPK(Octanoyl)AQIKE-NH2 (not fully specified (residue 8)) [Compound 45],68%
6,Hexanoyl-SNTSESFKFRVTQLAPKAQIKE-NH2 (not fully specified (residue 8)) [Compound 21],76.7%
7,SNTSESFKSNTSESFFRVTQLAPKAQIKE-NH2 [Compound 28],56.5%
8,LAPKFRVTQLAPKAQIKE-NH2 (not fully specified (residue 4); printed as LAPK(LAP)FRVTQLAPKAQIKE-NH2) [Compound 38],51.5%
9,SNTSESF[R5]PKA[R5]SNTSESF-NH2 (staple 8-12; not fully specified; printed as SNTSESFR5PKAR5SNTSESF) [Compound 22],71.4%
10,"SNTSESFKFRVTQLAKQIKE-NH2 (not fully specified (residues 8, 16)) [Compound 36]",89.7%
11,SNWSEDLK(SNWSEDL)FQIIQLHPKAKIEE-NH2 [Compound 69],48%
12,SNTSESFKFRVTQLAPKAQIK(Octanoyl)E-NH2 (not fully specified (residue 8)) [Compound 46],67%
13,Ac-SNTSESFKFRVTQLAPKAQIKE-NH2 (not fully specified (residue 8)) [Compound 17],32.9%
14,SNTSESFKLAPKAQIKE-NH2 (not fully specified (residue 8)) [Compound 30],58.8%
15,SNTSESFFRVTQKLAPKAQIKE-NH2 (not fully specified (residue 13)) [Compound 42],52.9%
16,SNTSESFKFRVTQLAPKAQIKE-NH2 (not fully specified (residue 8); printed as SNTSESFK(LAP)FRVTQLAPKAQIKE-NH2) [Compound 37],89.6%
17,SNTSESFK(SNTSESF)FRVTQLAPEAQIKE-NH2 (lactam 17-21; reading uncertain) [Compound 62],37%
18,SNTSESFKFRVTQLAPKAQIKE-NH2 (not fully specified (residue 8)) [Compound 11],12.4%
19,SNWSEDLKFQIIQLHPK(MPA‑NH‑CH2‑CH2‑O‑CH2‑CH2‑O‑CO)AKIEE-NH2 (not fully specified (residue 8)) [Compound 91],69.4%
20,SNTSESFKKAQIKE-NH2 (not fully specified (residue 8)) [Compound 32],14.8%

row,Binder,"Percent rescue (100 nM, compared with 100 nM Comp 8) in mouse splenocyte proliferation CFSE based assay"
1,SNWSEDLK(SNWSEDL)FQIIQLHPK(Palmitoyl)AKIEE-NH2 [Compound 82],58.3%
2,SNTSESFFRVTQLAPKAQIKE-NH2 [Compound 26],86.6%
3,SNTSESFK-NH2 (not fully specified (residue 8)) [Compound 29],31.1%
4,SNTSESFKFRVTQLAPKAQIKE-NH2 (not fully specified (residue 8)) [Compound 84],80.5%
5,SNTSESFKFRVTQLAQIKE-NH2 (not fully specified (residue 8)) [Compound 25],27.6%
6,FRVTQKFRVTQLAPKAQIKE-NH2 (not fully specified (residue 6)) [Compound 7],61.5%
7,SNQTDKFRVTQLAPKAQIKE-NH2 (not fully specified (residue 6); printed as SNQTDK (SNQTDK) FRVTQ LAPKAQIKE-NH2) [Compound 9],11.3%
8,SNTSESFKFRVTQLAP-NH2 (not fully specified (residue 8)) [Compound 41],5.1%
9,SNQTDKLAAFPEDSQPGQD-NH2 [Compound 3],37.3%
10,SNTSESFKFRVTQKAQIKE-NH2 (not fully specified (residue 8)) [Compound 31],11.3%
11,"SNTSESFKFRVTQKKAQIKE-NH2 (not fully specified (residues 8, 14)) [Compound 35]",81.2%
12,SNTSESFK(SNTSESF)FKVTQEAPKAQIKE-NH2 (lactam 10-14; reading uncertain) [Compound 63],68%
13,SNTSESFKFK(Palmitoyl)VTQLAPKAQIKE-NH2 (not fully specified (residue 8)) [Compound 40],82%
14,SNTSESFKFRVTQLAPKAQIKE-NH2 (not fully specified (residue 8)) [Compound 20],27.8%
15,Hexanoyl-SNTSESFKFRVTQLAPKAQIKE-NH2 (not fully specified (residue 8)) [Compound 16],45.8%
16,{Biotin-Ahx}-EKIQAKPAYWNLVKDTQNS-NH2 (not fully specified (residue 14)) [Compound 61],67%
17,SNTSESF-NH2 [Compound 1],96.5%
18,FRVTQLAPKAQIKE-NH2 [Compound 43],66%
19,SNTSESFKFRVTQLAPKAQIKE-NH2 [Compound 27],73.6%
20,EDRSQPGQDCR-NH2 [Compound 4],74.7%
